{"source": "IntAct's records for PubMed 23374343", "parents": {"B1": {"name": "Sialic acid-binding Ig-like lectin 10 (Mus musculus), Q80ZE3 (parent)", "chain": "MSLLLFLLSFLLDGPQGQMESYFLQVQRIVKAQEGLCIFVPCSFSSPEGKWLNRSPLYGYWFKGIRKPSLSFPVATNNKDKVLEWEARGRFQLLGDISKKNCSLLIKDVQWGDSTNYFFRMERGFERFSFKEEFRLQVEALTQKPDIFIPEVLEPGEPVTVVCLFSWTFNQCPAPSFSWMGDAVSFQESRPHTSNYSVLSFIPGLQHHDTELTCQLDFSRMSTQRTVRLRVAYAPRSLAISIFHDNVSVPDLHENPSHLEVQQGQSLRLLCTADSQPPATLSWVLEDQVLSWSSPVGSRTLALELPWVKAGDSGHYTCQAENRLGSQQHTLDLSVLYPPQDLRVTVSQANRTVLEILRNAISLPVLEGQSLCLVCVTYSNPPANVSWAWVTQTLIPIQSSEPGVLELPLVQREHEGEFTCAAQNPLGAQRISLSLSVHYPPQMSSPSCSWEAKGLHCNCSSRAWPAPSLRWRLGEGLLEGNSSNASFTVTFSSLGPWVNSSLSLLQELGPSLWLSCESWNTHGAQTTSVLLLPDKDSATAFSKGAVLGFGITALLALCLIVVIVKTLQKKGTQEEPSRPKLSRGSTILDYINVVPKTRSLARNWKAEPDAPSRSSPLDTHFPKPKKKQKDPHFTYPGCPDPTSSSQVPVSENNPEELHYAALNFSRLRLQETQDPQDTYSDYTEVRVH", "partner": "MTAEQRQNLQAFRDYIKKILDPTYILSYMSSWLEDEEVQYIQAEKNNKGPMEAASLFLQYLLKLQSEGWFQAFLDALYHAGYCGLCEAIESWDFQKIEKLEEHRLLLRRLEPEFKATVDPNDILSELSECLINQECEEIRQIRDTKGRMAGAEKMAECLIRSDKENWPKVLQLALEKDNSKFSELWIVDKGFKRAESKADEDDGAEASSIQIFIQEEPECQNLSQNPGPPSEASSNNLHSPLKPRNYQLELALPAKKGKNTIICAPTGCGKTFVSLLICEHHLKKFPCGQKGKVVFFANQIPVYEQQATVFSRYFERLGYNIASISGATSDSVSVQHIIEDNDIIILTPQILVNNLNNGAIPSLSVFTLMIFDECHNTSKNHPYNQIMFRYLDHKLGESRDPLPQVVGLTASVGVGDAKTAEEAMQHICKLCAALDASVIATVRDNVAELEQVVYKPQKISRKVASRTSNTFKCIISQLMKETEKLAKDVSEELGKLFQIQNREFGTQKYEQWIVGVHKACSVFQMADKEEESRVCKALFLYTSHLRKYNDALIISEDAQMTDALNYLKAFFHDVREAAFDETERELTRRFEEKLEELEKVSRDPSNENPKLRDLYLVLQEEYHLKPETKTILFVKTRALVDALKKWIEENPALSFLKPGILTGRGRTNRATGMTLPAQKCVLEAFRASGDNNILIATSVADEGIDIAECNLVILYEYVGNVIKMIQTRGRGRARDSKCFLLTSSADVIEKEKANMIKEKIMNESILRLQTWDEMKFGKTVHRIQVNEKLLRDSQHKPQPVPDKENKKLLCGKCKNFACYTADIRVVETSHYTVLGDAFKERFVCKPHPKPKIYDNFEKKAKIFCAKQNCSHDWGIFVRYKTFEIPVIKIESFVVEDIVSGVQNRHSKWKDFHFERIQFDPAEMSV"}}, "data": [{"variants_of": "B1", "settings": "with rigi_mouse Rigi", "values": [{"variant": "Y590F;Y635F;Y659F;Y679F", "effect of a mutation on the interaction": "decreasing interaction strength"}]}]}
